Experimental data: article PMC11707192 (Nature Communications, 2025)

T1: UHRF1 TTD-PHD (deletion 167-175) (human, UniProt Q96T88 134-366, deletion 167-175)
T1 sequence (looked up): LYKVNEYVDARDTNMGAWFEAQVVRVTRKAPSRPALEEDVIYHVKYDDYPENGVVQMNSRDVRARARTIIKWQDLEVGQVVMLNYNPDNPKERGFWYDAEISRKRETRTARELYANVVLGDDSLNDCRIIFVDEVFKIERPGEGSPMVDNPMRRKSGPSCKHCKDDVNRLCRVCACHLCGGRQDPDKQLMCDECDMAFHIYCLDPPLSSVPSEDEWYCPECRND

B1: UHRF1 TTD-PHD (134-366) (domain or fragment, human, UniProt Q96T88 134-366, looked up)
chain: LYKVNEYVDARDTNMGAWFEAQVVRVTRKAPSRDEPCSSTSRPALEEDVIYHVKYDDYPENGVVQMNSRDVRARARTIIKWQDLEVGQVVMLNYNPDNPKERGFWYDAEISRKRETRTARELYANVVLGDDSLNDCRIIFVDEVFKIERPGEGSPMVDNPMRRKSGPSCKHCKDDVNRLCRVCACHLCGGRQDPDKQLMCDECDMAFHIYCLDPPLSSVPSEDEWYCPECRND
B2: mSTE-2 (truncated peptide within mSTE-1, residue 85-119) (peptide, UniProt Q8QZY3 85-119, looked up)
peptide: KRRVRTLLSVLKDPIAKMRRLVRIEQRQKRLEGNE
B3: mSTE-1 (peptide of the mSTELLA Swap1 region, residues 80-119) (peptide, UniProt Q8QZY3 80-119, looked up)
peptide: QSAFPKRRVRTLLSVLKDPIAKMRRLVRIEQRQKRLEGNE
B4: UHRF1 PHD domain (298-367) (domain or fragment, human, UniProt Q96T88 298-367, looked up)
chain: SGPSCKHCKDDVNRLCRVCACHLCGGRQDPDKQLMCDECDMAFHIYCLDPPLSSVPSEDEWYCPECRNDA
B5: hSTE-1 (peptide of the hSTELLA Swap1 region, residues 75-121) (peptide, UniProt Q6W0C5 75-121, looked up)
peptide: EDEWLYSRRGVRTLLSVQREKMARLRYMLLGGVRTHERRPTNKEPKG

Columns and labels:
[1] = biological target: B3; test: ITC
[2] = biological target: B5; test: ITC
[3] = biological target: T1, UHRF1 TTD-PHD (deletion 167-175); test: crystal structure
[4] = biological target: B4; test: ITC
UHRF1 TTD-PHD (134-366) = biological target: B1; test: ITC

Binder | binding result [3] | Kd (UHRF1 TTD-PHD (134-366)) [nM] | Kd [4] [nM] | also measured
B1 |  |  |  | fold more potent affinity than the H3K9me3 tail [1]: > 30 fold; fold weaker affinity than the H3K9me3 tail [2]: 4 fold
B2 | binds |  |  | binding result [4]: binds
B3 |  | 5.84 | 91.2 | 
B4 |  |  |  | stoichiometry N [1]: 1; stoichiometry N [2]: 1
B5 | binds | 786 | 818 | 
